These results are taken from patent publication US20170029474A1.

Where two headings read alike, the source gives them in different places.

Test [1] deals with Recombinant HB-EGF (UniProt Q99075). Kind of test: cell-based or functional assay.
Test [2] concerns the target C-terminal His-tagged HB-EGF lacking the heparin-binding domain (UniProt Q99075). Kind of test: SPR, Biacore T200, His-tagged HB-EGF captured on NTA chip.
The target in test [3] is Recombinant HB-EGF (UniProt Q99075). Kind of test: cell-based or functional assay. The source holds these as a separate data set.

Recombinant HB-EGF, sequence (Q99075 63-148 limits assumed): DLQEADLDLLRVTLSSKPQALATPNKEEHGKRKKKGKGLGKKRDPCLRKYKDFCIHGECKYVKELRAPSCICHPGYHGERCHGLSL
C-terminal His-tagged HB-EGF lacking the heparin-binding domain, sequence (Q99075 other isoform, or with tags, fused parts or gaps limits assumed): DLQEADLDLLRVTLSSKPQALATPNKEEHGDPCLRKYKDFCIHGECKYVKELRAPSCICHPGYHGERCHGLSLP

For CRM197 (from UniProt P00587 26-560), in the test with Recombinant HB-EGF [1], the DER cell assay ID50 worked out at 1.02 nM and the DER cell assay Relative values (relative to CRM197) was 1. This substance had a Relative values (KA, against CRM197) (relative to CRM197) in test [2] of 1. Besides, in the test with Recombinant HB-EGF [3], the DER cell assay ID50 came out at 1.2 nM and the ID50 [nM], HB-EGF-dependent growth of DER cells was 1.2 nM.
On to “MBP-R (D507N) (from UniProt P00587 405-560)”, for which the ID50 [nM], HB-EGF-dependent growth of DER cells with Recombinant HB-EGF [3] stood at 4.5 nM.
On the same count and under the same terms, the result for “MBP-R (H520K) (from UniProt P00587 405-560)” reads 6 nM.
As to “MBP-R (V468T) (from UniProt P00587 405-560)”, the ID50 [nM], HB-EGF-dependent growth of DER cells with Recombinant HB-EGF [3] was 6.2 nM.
